Experimental data as given in article PMC4441544.

Molecular target: voltage-dependent anion channel (VDAC) (rat (endogenous in rat cortex)) (UniProt Q9Z2L0)
Assay: co-IP

UniProt Q9Z2L0, sequence (Q9Z2L0 whole entry): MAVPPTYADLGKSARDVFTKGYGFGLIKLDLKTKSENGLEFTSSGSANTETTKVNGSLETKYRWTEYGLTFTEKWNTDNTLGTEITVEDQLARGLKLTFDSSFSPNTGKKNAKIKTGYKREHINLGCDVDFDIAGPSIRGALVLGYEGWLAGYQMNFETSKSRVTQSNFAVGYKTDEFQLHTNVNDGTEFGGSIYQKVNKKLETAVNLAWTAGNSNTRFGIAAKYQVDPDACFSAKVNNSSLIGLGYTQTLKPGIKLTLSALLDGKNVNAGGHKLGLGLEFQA

Work on “Hexokinase II VDAC binding domain peptide (fused to Antennapedia homeo-domain)” yielded a percent reduction of HK1-VDAC binding at 100 µM peptide (lower VDAC band, VDAC3) of 66.1% and a percent reduction of HK1-VDAC binding at 100 µM peptide (total VDAC) of 50.4%.
